The text below walks through data of article PMC9848366, “Crystal structure of vaccinia virus G3/L5 sub-complex reveals a novel fold with extended inter-molecule interactions conserved among orthopoxviruses” (Emerging Microbes & Infections, 2023).

The assay deals with T1, VACV G3-ectodomain, tag-free (G3-Ecto) (vaccinia virus (VACV), UniProt P68458 22-111).
T1 sequence: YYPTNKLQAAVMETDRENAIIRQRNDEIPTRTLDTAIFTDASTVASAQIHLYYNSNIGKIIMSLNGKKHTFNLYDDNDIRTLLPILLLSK
The assay can be described thus: crystal structure. Particulars: both partners purified.

B1: VACV L5-ectodomain, tag-free (L5-Ecto) (domain or fragment)
chain: NMFFMPKRKIPDPIDRLRRANLACEDDKLMIYGLPWMTTQTSALSINSKPIVYKDCAKLLRSINGSQPVSLNDVLRR
As to B1, the binding result was “binds”.
